We go through eight molecules from publication PMC8016751 (Nature, 2020).

Like-named read-outs stand apart in the source and are kept apart here.

For data set [1], the target named is Mer2 coiled-coil single-chain dimer (S. cerevisiae) (UniProt P21651). The data set can be described thus: SEC-MALS. Background: In gel filtration, larger molecules generally elute earlier.
The target of a further data set is T1, Rec114-Mei4 (Saccharomyces cerevisiae, UniProt P32841;P29467 1-428;1-408).
T1 sequence 1: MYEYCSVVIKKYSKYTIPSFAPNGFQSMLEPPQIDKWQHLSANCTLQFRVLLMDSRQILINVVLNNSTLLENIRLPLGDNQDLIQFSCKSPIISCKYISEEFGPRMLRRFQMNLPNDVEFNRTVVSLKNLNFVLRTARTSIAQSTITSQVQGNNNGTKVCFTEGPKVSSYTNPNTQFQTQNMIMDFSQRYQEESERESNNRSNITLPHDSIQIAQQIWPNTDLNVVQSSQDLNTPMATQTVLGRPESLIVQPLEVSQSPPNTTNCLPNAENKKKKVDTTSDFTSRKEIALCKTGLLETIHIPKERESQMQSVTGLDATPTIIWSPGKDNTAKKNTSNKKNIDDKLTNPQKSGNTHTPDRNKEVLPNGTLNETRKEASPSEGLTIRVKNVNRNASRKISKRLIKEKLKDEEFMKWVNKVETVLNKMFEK
T1 sequence 2: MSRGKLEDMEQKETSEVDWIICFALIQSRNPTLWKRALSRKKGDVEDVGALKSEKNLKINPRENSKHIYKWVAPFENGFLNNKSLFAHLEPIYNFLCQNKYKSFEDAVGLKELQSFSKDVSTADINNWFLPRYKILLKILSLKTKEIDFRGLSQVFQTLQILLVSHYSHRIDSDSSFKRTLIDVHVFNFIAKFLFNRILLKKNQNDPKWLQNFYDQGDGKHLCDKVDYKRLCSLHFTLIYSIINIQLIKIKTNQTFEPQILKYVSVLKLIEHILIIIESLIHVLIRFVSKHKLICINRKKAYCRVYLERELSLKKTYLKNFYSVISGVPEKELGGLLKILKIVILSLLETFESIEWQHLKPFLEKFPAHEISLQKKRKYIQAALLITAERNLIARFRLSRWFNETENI
The data set can be described thus: EMSA. (In general: In EMSA bound probe runs differently from free probe, usually more slowly.)

A further data set addresses T2, Mer2 (Saccharomyces cerevisiae, UniProt P21651 1-314).
T2 sequence: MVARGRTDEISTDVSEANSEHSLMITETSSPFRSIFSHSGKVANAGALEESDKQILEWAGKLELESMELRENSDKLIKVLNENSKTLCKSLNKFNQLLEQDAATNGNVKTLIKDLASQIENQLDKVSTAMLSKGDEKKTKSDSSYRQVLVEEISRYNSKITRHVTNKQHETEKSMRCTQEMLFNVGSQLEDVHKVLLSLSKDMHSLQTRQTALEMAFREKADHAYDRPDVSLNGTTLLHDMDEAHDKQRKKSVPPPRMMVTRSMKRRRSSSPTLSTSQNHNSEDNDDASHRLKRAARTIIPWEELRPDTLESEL
Nature of the data set: EMSA.

Data set [2] deals with the molecule itself. Nature of the data set: SEC-MALS.
A further data set has as its target T3, MBP-tagged Mei4 (S. cerevisiae, UniProt P29467 1-408).
T3 sequence: T1 sequence 2
Nature of the data set: SEC-MALS.

In data set [3] the target is T4, Mei4 (untagged, from ^MBP-TEVMei4) (S. cerevisiae, UniProt P29467 1-408).
T4 sequence: T1 sequence 2
Nature of the data set: SEC-MALS.

Data set [4] concerns the molecule itself. The data set can be described thus: SEC-MALS. This is another data set of the same source.

For orientation: stoichiometry N means a count of units in the complex or per binding partner. With “Mer2 coiled-coil single-chain dimer (from UniProt P21651)”, in data set [1], the stoichiometry N was determined as 2.

B1: dsDNA20 (dsDNA)
DNA 1: AAAGATGTCCTAGCAATGTA
DNA 2: TACATTGCTAGGACATCTTT
As to B1, the results for the “apparent K (half saturation)” value in the data set with Rec114-Mei4 and with Mer2 were around 80 nM and above 400 nM, respectively.

B2: Mer2 coiled-coil domain (residues 77-227) (domain or fragment)
chain: IKVLNENSKTLCKSLNKFNQLLEQDAATNGNVKTLIKDLASQIENQLDKVSTAMLSKGDEKKTKSDSSYRQVLVEEISRYNSKITRHVTNKQHETEKSMRCTQEMLFNVGSQLEDVHKVLLSLSKDMHSLQTRQTALEMAFREKADHAYDR
B2: the “stoichiometry N” value in “SEC-MALS [2]” amounted to 4.

B3: dsDNA40 (dsDNA)
DNA 1: CAACGTGGGCAAAGATGTCCTAGCAATGTAATCGTCTATG
DNA 2: CATAGACGATTACATTGCTAGGACATCTTTGCCCACGTTG
For B3, the “apparent K (half saturation)” value came to 35 nM in the data set with Rec114-Mei4 and 64 nM with Mer2.

B4: HisFlag-tagged Rec114 (natural protein)
chain: T1 sequence 1
On to B4, for which, in the data set with MBP-tagged Mei4, the “stoichiometry N” value stood at 2 Rec114 per Mei4.

B5: Rec114 (untagged, from ^HisFlag-TEVRec114) (natural protein)
chain: T1 sequence 1
As for B5, in data set [3], the “stoichiometry N” value was found to be 2 Rec114 per Mei4.

B6: Mer2 (untagged, from ^SUMOMer2) (natural protein)
chain: T2 sequence
With B6, the “stoichiometry N” value in “SEC-MALS [4]” worked out at 4.

B7: dsDNA80 (dsDNA)
DNA 1: CTAGTATAGAGCCGGCGCGCCATGTCTAGATAGCGTTAGGTCTGCCGAATAGTACTACTCGGATCCCGAGCGAACCACGC
DNA 2: GCGTGGTTCGCTCGGGATCCGAGTAGTACTATTCGGCAGACCTAACGCTATCTAGACATGGCGCGCCGGCTCTATACTAG
As for B7, the “apparent K (half saturation)” value with Rec114-Mei4 stood at 6 nM; in the data set with Mer2 it was 19 nM.
